Consider six molecules from paper PMC2885190 (The Journal of Biological Chemistry, 2010).

Assay [1] deals with T1, Recombinant gp120 from HIV-1 IIIB (HIV-1 IIIB, UniProt P04578). In words: cell-based or functional assay.
The target of assay [2] is T1, Recombinant gp120 from HIV-1 IIIB. In words: SPR. In general terms: In SPR one partner is held on a chip, and binding of the other changes the refractive index at the surface.

B1: A12 mutant 1 (Tyr101 to Ala101) (VHH)
VHH: AVQLVESGGGLVQAGGSLRLSCTASGRISSSYDMGWFRQAPGKEREFVAAISWSGGTTDYADSVKGRFAISKDNAKNAVSLQMNSLKPEDTAVYYCAAKWRPLRYSDYPSNSDYADWGQGTQVTVSS
As for B1, the “neutralisation of HIV-1 IIIB, TZM-bl luciferase assay, IC50” value (“neutralisation of HIV-1 IIIB” below) in assay [1] was less than 1 µg/mL.

B2: mutant 7 of A12/D7 (VHH)
VHH: AVQLVESGGGLAQAGGSLRLSCTVSGRTSSSHDMGWFRQAPGKEREFVAAISWSGGTTNYADSVKGRFAISKDNAKNAVSLQMNSLKPEDTAVYYCAAKWRPLRYSDNPSNSDYNDWGQGTQVTVSS
Consider B2, for which the “neutralisation of HIV-1 IIIB” value in assay [1] was less than 1 µg/mL.

B3: A12 VHH (VHH)
VHH: AVQLVESGGGLVQAGGSLRLSCTASGRISSSYDMGWFRQAPGKEREFVAAISWSGGTTDYADSVKGRFAISKDNAKNAVSLQMNSLKPEDTAVYYCAAKWRPLRYSDYPSNSDYYDWGQGTQVTVSS
One may read the Kd as the equilibrium constant for the complex coming apart. The koff is a measure of how fast the partners let go of each other. The kon is a measure of how fast the partners come together. Regarding B3, in assay [2], the Kd turned out to be 0.1 nM, the koff is 2.98e-05 s⁻¹ and the kon turned out to be 273000 M⁻¹ s⁻¹.

B4: D7 VHH (VHH)
VHH: AVQLVESGGGLAQAGGSLRLSCTVSGRTSSSHDMGWFRQAPGKEREFVAAISWSGGTTNYADSVKGRFAISKDNAKNAVSLQMNSLKPEDTAVYYCAAKWRPLRYSDNPSNSDYNYWGQGTQVTVSS
As for B4, in assay [2], the Kd came to 2.9 nM, the koff is 0.000551 s⁻¹ and the kon turned out to be 155000 M⁻¹ s⁻¹.

B5: A12 mutant 2 (Tyr101 to Asn101) (VHH)
VHH: AVQLVESGGGLVQAGGSLRLSCTASGRISSSYDMGWFRQAPGKEREFVAAISWSGGTTDYADSVKGRFAISKDNAKNAVSLQMNSLKPEDTAVYYCAAKWRPLRYSDYPSNSDYNDWGQGTQVTVSS
For the molecule B5, the “neutralisation of HIV-1 IIIB” value in assay [1] is less than 1 µg/mL.

B6: A12 mutant 3 (Tyr101 to Gln101) (VHH)
VHH: AVQLVESGGGLVQAGGSLRLSCTASGRISSSYDMGWFRQAPGKEREFVAAISWSGGTTDYADSVKGRFAISKDNAKNAVSLQMNSLKPEDTAVYYCAAKWRPLRYSDYPSNSDYQDWGQGTQVTVSS
In the case of B6, the “neutralisation of HIV-1 IIIB” value in assay [1] was less than 1 µg/mL.
